One molecule from paper PMC2962916 can be followed below.

For the series, the target named is T1, HMGD-M13A HMG box (D74-M13A) (Drosophila melanogaster, UniProt Q05783 1-74, M13A).
T1 sequence: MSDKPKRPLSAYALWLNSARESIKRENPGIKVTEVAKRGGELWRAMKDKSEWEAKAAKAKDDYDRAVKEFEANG
Briefly: X-ray crystallography.

B1: GCGATATCGC decamer duplex (dsDNA)
DNA 1: GCGATATCGC
DNA 2: GCGATATCGC
Consider B1, for which the binding result was “binds”.
